Data: patent EP4763862A1
Substitutions are numbered along the chain they refer to.

B1: 16-B6-G3-E10 (antibody, human IgG1, kappa, V domains shown)
VH: EVQLQQSGTELVRPGALVKLSCKTSGFNIKDCYMHWVKQRPEQGLEWIGWIDPENGNTIYDPKFQGKATITADTSSYTAYLQLSSLTSEDTAVYYCARSRARGYAMDYWGQGTSVTVTS
VL: DIVMTQSPASLAVSLGQRATISCRASQSVSTSSYSYMHWYRQIPGQPPKLLIKYASNLESGVPARFSGSGSGTDFTLNIHPVEEEDTATYYCQHSWEIPRTFGGGTKLELKR
B2: 16-D10-E1-E1 (antibody, human IgG1, kappa, V domains shown)
VH: EVQLQQSGPELVRPGVSVKISCKGSGYTFTDYAMHWVKQSHAKSLEWIGVINTYSGNTYYSQKFKGKATMTVDKSSSTAYMELARLTSEDSAIYYCARGAGYFPYWYFDVWGAGTTVTVSS
VL: DIQMIQSPSYLAASPGETITINCRASKSISKYLAWYQEKPGKTNKLLIYSGSTLQSGIPSRFSGSGSGTDFTLTISSLEPEDFAMYYCQQHYEYPYTFGGGTKLEIKR
B3: 28-B1-E8-C11 (antibody, human IgG1, kappa, V domains shown)
VH: EVKLVESGAVLVKPGASVKISCKASGYTLSDFNMDWVKQSQGKSLEWVGDINPNYDTITYNQKFRGKATLTVDRSSNTAYMELRSLTSEDSAVYYCARGELGRYFYVWGAGTTVTVSS
VL: DIQLTQPPASLSASVGETVTITCRASENVYSYLAWYRQKQGRSPQLLVYNAKTLPEGVPSRFSGSGSGTQFSLKINSLQTEDLGDYYCQHHYGTPWTFGGGTKLEIKR
B4: 28-F8-C4-A8 (antibody, human IgG1, kappa, V domains shown)
VH: EVQLQQSGAELVQPGASMKLSCKTSGYTFTTYDINWVRQRPEQGLEWIGWIFPGDGTTKYNEKFKGKATLTTDKSSSTAYMHLSRLTSEDSVVYFCARTPWFDYWGQGTTLTVSS
VL: DIVLSQSPAIMSASPGEKVIMTCSASSSISYMYWYQQKPGTSPKRWIYDTSKLASGVPARFSVSGSGTSYSLTISSMEAEDAATYYCHQRSSYPTFGGGTKLELKR
B5: 19-F1-E9-B11 (antibody, human IgG1, kappa, V domains shown)
VH: EVQLQQSGPSLVKPSQTLSLTCSVTGGSITSFYWNWIRKFPGNKLEYMGYISSSGSTYYNPSLKSRISITRDTSKNQSYLQLNSVTAEDTATYYCARGGVHYGFGDYWGQGTSVTVSS
VL: DIVMTQSAPSVPVTPGESVSISCRSSKSLLHSNGNTYLYWFLQRPGQSPQLLIYRMSNLASGVPDRFSGSGSGTAFTLRISRVEAEDVGVYYCMQHLEYPLTFGAGTKLELKR
B6: 34-H11-D9-F6 (antibody, human IgG1, kappa, V domains shown)
VH: EVQLQQSGAELVKPRASVRLSCRASGYTFTSYWMHWVKQRPGQGLEWIGMIHPNSGSTNYNEKFKSKATLTVDKSSSTAYMQLSSLTSEDSAVYFCARERFGLLRYFDYWGQGTTLTVSS
VL: DIVMTQSPSSMYASLGERVTITCKASQDINSFLSWFQQKPGKSPKTLLYRANRLMDGVPSRFSGSGSGQDFSLTISSREYEDMGIYYCLQYDEFPFTFGSGTKLELKR
B7: cAb1-z0-p7 (antibody, human IgG1, kappa, V domains shown)
VH: EVQLVESGGGLVKPGGSLRLSCAASGFTFSSYGMSWVRQAPGKGLEWVSSISGSGSYTYYPDSLKGRFTISRDNAKNSLYLQMNSLRAEDTAVYYCARQQGYWYFDVWGQGTTVTVSS
VL: DIVMTQTPLSLPVTPGEPASISCRASQSLASSYGKTYLSWYLQKPGQSPQLLIYGISNRFSGVPDRFSGSGSGTDFTLKISRVEAEDVGVYYCLHGTHQPLTFGQGTKLEIKR
B8: cAb1-z5-p7 (antibody, human IgG1, kappa, V domains shown)
VH: B7 VH with G44R, S49A
VL: B7 VL with I2V
B9: cAb1-z3-p7 (antibody, human IgG1, kappa, V domains shown)
VH: B7 VH with G44R
VL: B7 VL with I2V
B10: cAb2-z1-p9 (antibody, human IgG1, kappa, V domains shown)
VH: B3 VH
VL: DIQLTQPPSSLSASVGDRVTITCRASENVYSYLAWYQQKPGRSPQLLVYNAKTLPEGVPSRFSGSGSGTQFTLTISSLQPEDFADYYCSHHYGTPWTFGGGTKVEIKR
B11: cAb2-z5-p6 (antibody, human IgG1, kappa, V domains shown)
VH: QVQLVESGAVVKKPGASVKVSCKASGYTLSDFNMDWVRQAPGKSLEWMGDINPNYDTITYNQKFRGRVTLTVDRSINTAYMELSRLRSDDTAVYYCARGELGRYFYVWGAGTMVTVSS
VL: B10 VL

target: Human B7-H3-His protein (human) (UniProt Q5ZPR3); assay: BLI, Fortebio Octet R2, antibody on AMQ sensor, human B7-H3-His in solution

Binder | Kd | koff | kon
B1 | < 0.001 nM | < 1e-07 s⁻¹ | 1.3e+06 M⁻¹ s⁻¹
B2 | 0.0877 nM | 0.000142 s⁻¹ | 1.62e+06 M⁻¹ s⁻¹
B3 | 0.0714 nM | 8.49e-05 s⁻¹ | 1.19e+06 M⁻¹ s⁻¹
B4 | 0.0434 nM | 7.56e-05 s⁻¹ | 1.74e+06 M⁻¹ s⁻¹
B5 | 2.32 nM | 0.000408 s⁻¹ | 176000 M⁻¹ s⁻¹
B6 | 0.0522 nM | 7.52e-05 s⁻¹ | 1.44e+06 M⁻¹ s⁻¹

target: Human B7-H3-His protein (human) (UniProt Q5ZPR3); assay: SPR, Biacore 8K, antibody captured by anti-human IgG Fc on CM5, B7-H3 Human-His as analyte, 1:1 model

Binder | Kd | koff | kon
B7 | 6.53 nM | 8.2e-05 s⁻¹ | 12600 M⁻¹ s⁻¹
B8 | 3.51 nM | 7.21e-05 s⁻¹ | 20500 M⁻¹ s⁻¹
B9 | 4.02 nM | 6.87e-05 s⁻¹ | 17100 M⁻¹ s⁻¹
B3 | 5.91 nM | 0.000846 s⁻¹ | 143000 M⁻¹ s⁻¹
B10 | 4.85 nM | 0.000802 s⁻¹ | 165000 M⁻¹ s⁻¹
B11 | 6.6 nM | 0.00122 s⁻¹ | 184000 M⁻¹ s⁻¹
